The source of these data is patent publication US20230203538A1.

The target of experiment [1] is CD5 on murine T cells (mouse) (UniProt P13379). Kind of experiment: cell-based or functional assay.
Experiment [2] deals with CD5 on human ACH2 immortalized T cells (human) (UniProt P06127). The experiment in a line: cell-based or functional assay.
Sequence of UniProt P06127 (P06127 25-495 limits assumed): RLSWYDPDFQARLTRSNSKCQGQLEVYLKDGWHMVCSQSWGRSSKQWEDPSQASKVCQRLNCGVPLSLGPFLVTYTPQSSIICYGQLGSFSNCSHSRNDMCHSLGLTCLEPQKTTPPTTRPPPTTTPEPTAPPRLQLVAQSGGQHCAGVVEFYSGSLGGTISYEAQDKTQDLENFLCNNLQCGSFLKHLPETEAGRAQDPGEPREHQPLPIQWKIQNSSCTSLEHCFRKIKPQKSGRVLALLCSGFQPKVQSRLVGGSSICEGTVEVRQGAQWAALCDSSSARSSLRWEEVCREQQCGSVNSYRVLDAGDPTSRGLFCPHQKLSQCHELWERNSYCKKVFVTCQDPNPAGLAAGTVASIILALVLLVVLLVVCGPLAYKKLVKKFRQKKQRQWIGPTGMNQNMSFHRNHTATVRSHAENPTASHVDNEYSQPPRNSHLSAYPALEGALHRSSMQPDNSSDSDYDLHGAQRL

Sequence of UniProt P13379 (P13379 24-494 limits assumed): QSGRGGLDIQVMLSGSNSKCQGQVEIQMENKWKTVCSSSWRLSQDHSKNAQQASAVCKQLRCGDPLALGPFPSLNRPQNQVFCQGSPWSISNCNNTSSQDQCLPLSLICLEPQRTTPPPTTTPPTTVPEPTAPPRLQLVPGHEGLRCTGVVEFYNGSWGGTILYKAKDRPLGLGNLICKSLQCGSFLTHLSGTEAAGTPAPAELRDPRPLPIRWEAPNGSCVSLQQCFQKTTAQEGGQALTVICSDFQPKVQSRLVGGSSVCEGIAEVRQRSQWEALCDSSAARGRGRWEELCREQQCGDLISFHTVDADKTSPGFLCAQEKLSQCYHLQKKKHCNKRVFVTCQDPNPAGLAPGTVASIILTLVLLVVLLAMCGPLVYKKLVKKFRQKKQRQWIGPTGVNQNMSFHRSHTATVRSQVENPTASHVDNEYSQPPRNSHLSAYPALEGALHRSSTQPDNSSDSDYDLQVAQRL

On to “control isotype matched IgG conjugated to LNP-mRNA (antibody)”, for which the percent of murine T cells that received mRNA from IgG/LNP-FAPCAR (flow cytometry) in experiment [1] was 7%.
For the substance “mouse anti-human CD5, clone UCHT2 (BioLegend), conjugated to LNP-mRNA (antibody)”, in experiment [2], the percent gene transfer (GFP) in human ACH2 T cells 24 hours after mixing with CD5/LNP-GFP lay in the range of 89 to 93%.
As for “purified rat anti-mouse CD5, clone 53-7.3 (BioLegend), conjugated to LNP-mRNA (antibody)”, in experiment [1], the percent of murine T cells expressing FAPCAR 48 hours after incubation with CD5/LNP-FAPCAR (flow cytometry) was determined as 83% and the percent of murine T cells expressing GFP 48 hours after incubation with CD5/LNP-GFP (flow cytometry) amounted to 78%.
